Measurements reported in article PMC3315512.

Tests used:
[1] = molecular target: CeHsc70-Δ512 (lidless CeHsc70) (C. elegans) (UniProt P09446)
[2] = molecular target: CeHsc70-Δ545 (half-lid deletion of CeHsc70) (C. elegans) (UniProt P09446)
Sequence of CeHsc70-Δ545 (half-lid deletion of CeHsc70) (C. elegans) (P09446 1-545, stated change not applied): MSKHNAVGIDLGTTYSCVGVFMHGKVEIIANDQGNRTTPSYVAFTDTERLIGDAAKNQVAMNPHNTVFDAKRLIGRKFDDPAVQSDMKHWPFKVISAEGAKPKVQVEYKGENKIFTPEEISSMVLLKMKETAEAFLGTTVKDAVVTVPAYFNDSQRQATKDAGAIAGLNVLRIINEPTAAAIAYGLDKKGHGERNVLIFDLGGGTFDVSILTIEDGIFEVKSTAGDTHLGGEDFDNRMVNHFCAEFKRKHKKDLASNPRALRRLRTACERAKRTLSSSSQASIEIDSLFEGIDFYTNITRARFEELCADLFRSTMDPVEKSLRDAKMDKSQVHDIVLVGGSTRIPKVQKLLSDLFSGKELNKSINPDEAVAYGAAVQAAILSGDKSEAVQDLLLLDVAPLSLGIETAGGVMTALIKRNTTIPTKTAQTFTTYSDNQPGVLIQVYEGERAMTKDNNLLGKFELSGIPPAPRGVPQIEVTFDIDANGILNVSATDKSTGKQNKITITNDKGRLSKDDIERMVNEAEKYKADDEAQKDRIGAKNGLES

Sequence of DNJ-13 (C. elegans, unlabelled), Q20774 1-331 (natural protein) (Q20774 entry or part of it): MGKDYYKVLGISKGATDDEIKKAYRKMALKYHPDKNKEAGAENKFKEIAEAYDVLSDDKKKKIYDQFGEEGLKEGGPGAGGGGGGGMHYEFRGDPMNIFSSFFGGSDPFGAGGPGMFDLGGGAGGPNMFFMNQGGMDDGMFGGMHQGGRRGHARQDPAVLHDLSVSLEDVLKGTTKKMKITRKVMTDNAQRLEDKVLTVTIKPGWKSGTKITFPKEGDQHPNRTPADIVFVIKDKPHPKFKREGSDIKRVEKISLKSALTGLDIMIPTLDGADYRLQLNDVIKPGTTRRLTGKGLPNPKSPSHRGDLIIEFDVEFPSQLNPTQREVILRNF
Sequence of CeHsc70-Δ512 (lidless CeHsc70) (C. elegans) (P09446 1-512, stated change not applied): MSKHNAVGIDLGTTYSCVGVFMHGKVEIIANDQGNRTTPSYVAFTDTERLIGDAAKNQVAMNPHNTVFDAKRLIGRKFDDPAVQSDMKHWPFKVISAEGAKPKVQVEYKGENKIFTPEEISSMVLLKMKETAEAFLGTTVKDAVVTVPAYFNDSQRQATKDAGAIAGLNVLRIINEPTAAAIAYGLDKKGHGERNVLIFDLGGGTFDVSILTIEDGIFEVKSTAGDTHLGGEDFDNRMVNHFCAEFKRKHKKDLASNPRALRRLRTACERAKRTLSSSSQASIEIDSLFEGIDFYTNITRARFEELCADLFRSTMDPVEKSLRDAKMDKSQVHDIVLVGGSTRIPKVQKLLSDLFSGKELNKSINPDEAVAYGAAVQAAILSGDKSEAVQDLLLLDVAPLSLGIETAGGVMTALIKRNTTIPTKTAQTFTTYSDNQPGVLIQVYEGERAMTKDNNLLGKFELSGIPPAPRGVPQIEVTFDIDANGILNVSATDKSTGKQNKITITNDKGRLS

apparent KD of DNJ-13 from titration of the steady-state ATPase activity of 1 µM CeHsc70-Δ512 in the presence of 2 µM BAG-1, standard buffer, 25°C [1]: 1.2 µM
apparent KD of DNJ-13 from titration of the steady-state ATPase activity, standard buffer, 25°C [2]: 4.2 µM
Substance: DNJ-13 (C. elegans, unlabelled), Q20774 1-331 (natural protein)
